Assay results taken from publication PMC11077774, “Molecular mechanism for recognition of the cargo adapter Rab6^GTP by the dynein adapter BicD2” (Life Science Alliance, 2024).

Key:
Assay in all cases: pull-down; GST-tagged Rab6^GTP (WT = Q72L, or mutant) held on glutathione Sepharose columns, 1 mM GTP and 2 mM MgCl2 added for 30 min; purified BicD2-CTD added and incubated 30 min; washed, eluted with glutathione; SDS-PAGE (16%), Coomassie, band intensities quantified with ImageJ, ratio of bound BicD2-CTD/Rab6^GTP normalised to WT = 1; three experiments
Settings in all cases: both partners purified
[1] = target: T1, full-length GTP-bound Rab6a/Q72L with N-terminal GST tag (human, UniProt P20340 1-208, Q72L)
T1 construct: pGEX6P1 vector, PreScission site after GST; Construct described in Gibson et al, 2023; also called Rab6^GTP WT; Rab6^GTP; source: E. coli BL20(DE3)-RIL, purified by glutathione Sepharose, washed but not eluted; not shown: GST, N-terminal, kept

[2] = target: T2, GST-tagged Rab6^GTP (Rab6a/Q72L) Q65A mutant (human, UniProt P20340 1-208, Q72L | Q65A)
T2 construct: Rab6a, human, full length, Q72L background with Q65A; Loaded with 1 mM GTP and 2 mM MgCl2 on the column; source: E. coli BL20(DE3)-RIL, purified by glutathione Sepharose, washed but not eluted; not shown: GST, N-terminal, kept

[3] = target: T3, GST-tagged Rab6^GTP (Rab6a/Q72L) S52A mutant (human, UniProt P20340 1-208, Q72L | S52A)
T3 construct: Rab6a, human, full length, Q72L background with S52A; Loaded with 1 mM GTP and 2 mM MgCl2 on the column; also called phosphonegative mutation S52A; source: E. coli BL20(DE3)-RIL, purified by glutathione Sepharose, washed but not eluted; not shown: GST, N-terminal, kept

[4] = target: T4, GST-tagged Rab6^GTP (Rab6a/Q72L) K53A mutant (human, UniProt P20340 1-208, Q72L | K53A)
T4 construct: Rab6a, human, full length, Q72L background with K53A; Loaded with 1 mM GTP and 2 mM MgCl2 on the column; source: E. coli BL20(DE3)-RIL, purified by glutathione Sepharose, washed but not eluted; not shown: GST, N-terminal, kept

Measured: binding result

T1 sequence (P20340 whole entry Q72L): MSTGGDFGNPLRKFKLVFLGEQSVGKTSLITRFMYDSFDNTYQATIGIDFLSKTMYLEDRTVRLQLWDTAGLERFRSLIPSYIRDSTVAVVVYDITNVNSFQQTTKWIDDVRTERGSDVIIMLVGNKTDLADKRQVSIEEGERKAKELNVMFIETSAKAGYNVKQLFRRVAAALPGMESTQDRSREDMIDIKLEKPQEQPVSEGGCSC
T3 sequence (P20340 whole entry S52A/Q72L): as the sequence (P20340 whole entry Q72L) above, with S52A counted along it
T2 sequence (P20340 whole entry Q65A/Q72L): as the sequence (P20340 whole entry Q72L) above, with Q65A counted along it
T4 sequence (P20340 whole entry K53A/Q72L): as the sequence (P20340 whole entry Q72L) above, with K53A counted along it

B1: BicD2-CTD (C-terminal cargo-binding domain of human Bicaudal D2, residues 715-804) (domain or fragment, UniProt Q8TD16 715-804, looked up)
chain: YENEKAMVTETMMKLRNELKALKEDAATFSSLRAMFATRCDEYITQLDEMQRQLAAAEDEKKTLNSLLRMAIQQKLALTQRLELLELDHE
notes: Construct described in Gibson et al, 2022; also called BicD2-CTD WT
binds: all assays above
